Results on 17 sequences are retold here after a protein production outcome set (Wang et al. 2014).

The series can be described thus: label from the status in PepcDB records.
For “MKKKAALATLAMLPLGVVNAHADGDIGIVTINYLNVRNEPTAESSIAFVAKKDDKVLIKDSSNGWYKIKAESGQEGWASSKYIAKSNSDSLRTSTNKEKQVISNSLNMRNGAGTSYRVITVLKKGQKVEVISESNGWSKIKYDGRLGYVSSSYLGDVSNSTNKSKTKQVNTTSLNVRSGPNTSYGLLGKLPKGSKVEVISESNGWSKIKYNGKDAYVSSMYLSDVSQSNSDNSSQSNDKKNTDKVVNTASLNVRSGPGSTYSKLGKVYKGSKVTVLSESSGWAKINFNNKEAFVVGNYLSTSADTSNNNSNSNYDNSSNSNGNNSSSSGQVNGMSGISGAKIDYKSLSYTLESHISKQVEKAASGGNVIAPSNRKSTPSPEFSTFSAQRTSSFVNASSSDIEYYLNPKNFTNTTKGMMQFLKINSYRDGISESSLNSYLNGLSSSVFKNQGAAFINAAKKYNIDVVYLVSHAMWETAYGKSTLAQGQTLTSYKGQPLSKPVKVYNFFGIGAIDKSANVSGAEAAYSNGWTSVETTIDGSAKWISQNYVNSSKYNQNTIYKMKWNYDYTWHQYATDVNWANGISGIMENLIGLYRGGSSLVFEVPQYK”, the protein production result is reported as “failed”.

Take “MKKKLDRREAVRSEKKTLPWRKKRSSRGCCWRRRVATAVGEEESRRLMEKTRRDGEEEEVTSDGGSWNGKKKLYRRRRRYLGEETDRLAAEAGEEELRRLLENKRRGREEEERRRRNQIEEEERRRRRK”: the protein production result is reported as “failed”.

Turning to “MKKKNILFFLLCFLLTSLSAQTLEQARGMYGRGQYAEAKPVFQKYVKSQPANGNYNLWYGVCCLKTGNAAEALKYLETAVKKRIPSGQLYLAQTYNDLYRFQDAVDCYEEYIADLSKRKKPTEEAEQLLEKAKGNLRMLKGVEDVCVIDSFVIDKANFLKAYKISEESGKLFTYNDYFKTKGYHPGTVYETEIGNRIYYSEQGEESLNILSKTKMLDEWSQGKPLPGSINASGNANYPYVLSDGVTIYYASDGDGSMGGYDIFVTRYNTNTDTYLVPENVGMPFNSPYNDYMYVIDEYNNLGWFASDRYQPEDKVCIYVFVPNDSKRTYNYEAMEPEKMIELAQLHSLESTWKDSKIVDDARQRLEAVINHKPAVEQNFDFEFIIDDHSTYHHLTDFKSPKAKQLYLKYEQMEKDYRQQTGKLKSQREGFARSNKDEQSKMAPAIRDLEKRVLQMSEELDKQAIEVRNAEKQNLK”, the protein production result is listed as “failed”.

Take “MKKKYFGTDGIRGKVGDFPITPDFFLRLGYAVGKVLLASDRQLAADKRPTVLIGKDTRISGYMLESALEAGFSAAGVDVLLSGPLPTPAVAYLVRALRIQAGAVISASHNPFDDNGIKFFSSAGSKLPDSMELQIEAELDQPMKTTPSIKLGRVQRLRDAAGRYIEFCKSTFPNQLDLRGLRIVVDCANGADYHIAGHVMHELGADVITTHASPDGFNINYECGATHIETLQGSILQHKADIGIAVDGDGDRVLMVSREGVLYDGDSLAYIIAKHRQQLGELQGGVAGTLMTNLAVEQAFERLGIPFARANVGDRYVSELLQQNDWYLGAENSGHIICRDKHTTGDGIISALQVLYALRDTGLTLADFMRDVPFFPQRLINVKVSGNFDFRSNPAVAACKNEAEQALGNDGRILLRASGTEPLIRVMVEGKVLQQTDYWAEKIAETIRQQAASSMTGS”: the protein production entry was “failed”.

On to “MKKLFTNTIFIQSNLERLSTILKSPQNLSKWVPDINSVSPKDDYFLISRSSSALNNFEKISVTSQDNSIIYTSTGGRLEYELHFDLTNKDDRTLVEQTLLVDETLTKLPLTLLAPIAKHAFHENLSSLERLIAISLEHHHHHH”, for which the protein production result is “failed”.

As for “MKKLINIILLSLIFVFCFNLKVLANDNLESSKEKIDNDSRIERFYDYINNLETEEDILGNMSAKEYIMNYLESGEDPITLKKIGASILSYIFRELNIVLKFIASILVIALLSALLKNLQDAFNIEEGVTQIAFFACYALLIMLLTKSFFISLNLGKEVLTSIIDFMNVIVPVIVMLIATSGGVTSAVTIDPIVLGAVSITPRIYTYFLFPLILAYFTLQFVNNLSSEFKIDRMCKFIKQVVMISQGFILTIFVGILTLRGMTADTLDAVAVKTVKFAVDNFVPIVGKAFSDAITTVAGYSLAMKSVITSLGVIVIVVIVIYPIIKIGLMAICFKLTSAVIEPVVDSKISSSVETVGEALFMIMSCIISVSIMFFIMASMMATAGNFIVGG”, the protein production result is “failed”.

With “MKKLLTFIMACVISLGATAQISEKAFEKWHQNKYSMFIHFGLYSELGGVWEGNPVTRGYSEQIQSFAGIFSDWYGDTALRFNPTLFDADAIVSLAKEAGMRSIIITTKHHDGFCMFRTATTDYNSYDATPGKRDFIKEMAEACKRGGINFGIYFSLIDWHFPQAYPISSHNCDFITPQHHEFTKAQVTELLTNYGPISELWFDMGSNTPEQSKELYQLVHRLQPDCMVSGRLGNDQYDFSVMADNTYPEGSLQTAWQTAASMFDETWSYRSWQKRGDVHTKAMEKLRSLINVVSHGGNFLLNIGPKGDGSVVPFEREVLKEIGIWLKKNGEAIYGTEASPFREQFEWGTITRKGNNLYLILSGNRPADGKITLNVPGCKLQKADIKAIQKGQEMIFTLPADAYGKDIQVICATFDQPVKPQPMAAQRTPNYSYSCFDYYSNYRSTVSYQWSINKSNLNALEFTYTPQENGKELLVEVDGIPYTVTLDAGKAQALNLPSKTVWGQRYFCGPGSGLFDAPATIHTDPDKAPVRKGQWKEVNEEKAMFPSNILESYFLMQQVESPKAQDILVDVGAGNGIEIYLNGKSVMKHLNPYRCKFREEKVLLPLQKGSNQIVVRIYNRFEKETGYLLRPSAEQVIYKQKFTLPQVAKGKVHTVVVKQNNLPSIHKDTELSNLKVEAK”, the protein production entry is “failed”.

As for “MKKLVHLSDFHYDGLRLSEEMLAEAIAVSNQVQPDLVLLTGDYVTTTPQPIHQLAKRLQKLQSHAGIYAILGNHDLYQKNSKTEITQALTKAGIQVLWNEIAYPLGEELPIVGIVDYYYREFNPQLLFNQLEPTTPRIVLCHNPDTAAMLQGWRVDLQLSGHTHGGLEHHHHHH”, the protein production entry was “failed”.

“MKKQFLFLLLAVILLSSCATATLSEFPGVGRVKQYDFYSYDIPPAFDGFRIGFASDFHYESRFKRSELNSAVRALKSMHADVLLLGGDYRGKKGGNLDTLFTALSRVYTPYGTFAVMGNHDYGYCYSEVVEAMQKNHVRLMEHKSYKLMKDGQYIIVSGVRNPFDLKKNGDSPSQHFPADDFIILLTHTPDYAEDTDVSNANLVLAGHTHGGQVSLFKKYSPVKHSIYGNRFLTGWKENSKGTPIIITNGLGTSRVDVRLFTPSEVVLVVLHRVEKQKE”: the protein production entry is given as “failed”.

In the case of “MKKRFSNKVLIIGYGSVSQCTLPLLLDKLDIPLENITLIDFEDKSKALKKYTNQGLTFVREKITPENLDQVLSQNMENEGMIIDLSWNIDANEIVKWCHDHDVLYVNTSVEVWDPAEKFLTQSLLEKSLYLRQMRLQELSRDWKDAPTAVVDHGANPGLITHFVKQGLLDIAARTCEDKKVSPEDEQEIALLAKNRDFARLARKLGIRVIHCSERDTQIASRPKEVNEFVGTWSIEGLREEGTAPVEIAWGTHESKLPPLAHIPPYGPKNVILLPQMGVNAWVRSWIPDEEIVGMAIRHGESYGLSKLLTVWEGEKAVYRPTVHYAYMPSHDTLSSLCELRGRNYELQPRLRIMTNEIVSGEDIMGALLMGHSYNSWWTGSALSIEEARSLAPGQNATTLQVAAGIVAAILWMLENPREGVKTPEDLPHDFVLDIARPYLGKFISTPSDWTPLKNRKIFFKESPAVKHDPDPWQFENFIFVGLEHHHHHH”, the protein production entry is “not failed”.

Take “MKKRILFVSAIAIQCMMTSMALANDITSQQTAENIPFEKNQLSVRLNGEQYRSAFQIDLSDPNLILTIDTDLIPEEDIDALLPELNDSEEAQVSAFNEPKSLALRIEAKEKAANGDFVGALALLNEAEALTENPAKVLSMKGSVHYKLNQVELAIVSWKKALELDPSLTEVSDIIQWLEK”: the protein production entry is “failed”.

For “MKKSKYLTLLSVAALTLLTSGLGSQAVLADTDTAQTTNTSTNTTTDTSKTSTALNHQEAKGQKLTTPVGTLPNAQDAISNKAVLKRVHGYSWKTTPDVSAAGSQKATVVITYTDGTTSEVEVDLEVTGTGCASQNSPVAKTGLTVKVGKSLTARSAISNLSRLRNVDSVTWKQAPSTAKAGTVKGTVLVTYTDKSTDTVDVTVKVSSVVTTKKSVKKSKKKQYVTKTRKIILDRPGKNKTITQKVKLSRTVTTTTTTTKTYTDGKLTKTSKKAKKSYGKWSKGTWKSYKVPAISGYKRSTTKVKAKAVTSKTKNITVKVSYKRVLHKPANAPYYDPADMRAKTGAYYFQSSEKRAYPNLAKYKNVWIRVSILGNRVYVMSGKKVIYTMYSSAGRFEMTNGKYQSDTPRGTFYLKAAYGPSFMSSDGVGARYYMAYYGSDYLFHSVPINNYGSGVYYKGYHYGYGGVGSTAHLTVQGTNPDSLGCIRLTLSDARWLYGQRTSGKLKVGTKVVIKYK”, the protein production result is “failed”.

On to “MKKSSILVFLLTYGLFYVSSILFPIDRMWYDALEKPSWTPSGMTIGIVWTVLYGLIALSVAIIYNKYGCKPKTFWFIFLLNYMCNQAFSYFQFSQKDLFLATIDCLLVAVTTLLLIAVSSSLSKVSTWLLIPYFLWATFATYLSWSIYSIN”, for which the protein production entry is on record as “failed”.

With “MKKTTLFVLGLLFNSFLNAVDGISKTDLSSLNLAEDSAPLNHPNAQKLSLKNAWTRVLSNHEGLHAQEYAIKRASKMKLAAKLSFLPQIDLSAFYVYLSNPIKMDFASQKQPGVQKATNQIHQGIQNIQQNIPSQVLTPQIQAGMQGVMQGFGALSSTLEAPLLFSKQNVVIGALSIIYPLYMGGARFTMVRIADLMQKDANEVYRLKKLSTFQELVSVYYGMVLNAEVAETLEEVEKGHYKHFQNALKMQKVGQIARVETLGAQVAYDKAHIASVKAKDVLEVSQLSFNSILSSKDDLVPSSKLEIRTEKNLPDLSFFVSSTLNSYPVLKTLENQIQISKENTKLQIAKFLPQVSFFGSYIMKQNNSVFEDMIPSWFVGVAGRMPILSPTGRIQKYQASKLAELQVSSEQIQAKKNMELLVNKTYKETLSYLKEYKSLLSSVELAKENLKLQEQAFLQGLSTNAQVIDARNTLSSIVVEQKSVAYKYIVSLANLMALSDHIDLFYEFVY”, the protein production result was “failed”.

For the sequence “MKKTWKVFLTLVTALVAVVLVACGQGTASKDNKEAELKKVDFILDWTPNTNHTGLYVAKEKGYFKEAGVDVDLKLPPEESSSDLVINGKAPFAVYFQDYMAKKLEKGAGITAVAAIVEHNTSGIISRKSDNVSSPKDLVGKKYGTWNDPTELAMLKTLVESQGGDFEKVEKVPNNDSNSITPIANGVFDTAWIYYGWDGILAKSQGVDANFMYLKDYVKEFDYYSPVIIANNDYLKDNKEEARKVIQAIKKGYQYAMEHPEEAADILIKNAPELKEKRDFVIESQKYLSKEYASDKEKWGQFDAARWNAFYKWDKENGILKEDLTDKGFTNEFVK”, the protein production result is on record as “failed”.

Take “MKKVILLGATSNISKYLIPRLLAKNDVELTLFARQATRRLHQYAAQSQVTLTNGNWNNSADLTAAIAGQDIVYLATGHFTTANQNVVDAMKQNGVERLIVAGGLGIYDEVAGKFGIWNAQMMGDYTEIKRAAAVIDNSGLNYTFLRMAWLYNNDQHTDYKVIPQGMPFKDTQVTRQAVADLITEIIHNPQLYQRSSIGVAEPNTAWNKPGFY”: the protein production entry is reported as “failed”.

Regarding “MKKVLILFAHPRMEKSRANTTLLKHIPSAENITFHDLYELYPDFNIDVEAEKQLLLLHDIIIWQHPFYWYSCPPLMKQWIDMVLEFGWAYGPGGTALKDKIIFNAITTGGANATYNAGGHNRFTMQEYLRPFEQTAHLCKMIYFPPFLVQGSHRLTDEELQRFSQQYVILLTKMSQGNFEEAHMKDITFLNEICVKPR”, the protein production entry was “failed”.
